The labels stand for the following.
B1: TPR t1 (parent)
chain: GACCAAUCUGCCCUCAGAGCUCGAGAACAUCUUCGGAUGCAGAGGAGGCAGGCUUCGGUGGCGCGAUAGCGCCAACGUCCUCAACCUCCAAUGCAUCCCACCACAUGAUGAUGCCUGAAGAGCCUUGGUUUUUUG

Variants of B1 are the subject of this series. The series is described as follows: polymerase ribozyme fitness, log enrichment relative to wild type (log ratio); higher = more active; in vitro selection for triplet polymerase activity. The essentials: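 Only genotypes with ≥10 input reads and ≥1 read per output were kept after Illumina sequencing of input and output libraries. These libraries were PCR-built, transcribed mutants of each subunit of a heterodimeric triplet polymerase ribozyme, each put through one triplicate in vitro selection round with frozen incubation at −7 °C, gel excision of extended constructs, streptavidin-bead capture and RT-PCR. Fitness is a logarithmic ratio of genotype enrichment to wild-type enrichment, from inverse-variance-weighted replicate averages, with the logarithm in base 2.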
As for G71C A74G A91C G93C C99G A105U A111G, the “polymerase ribozyme fitness (log ratio)” value is -6.99. For the variant C53G U78C U81C U106A, the “polymerase ribozyme fitness (log ratio)” value is -3.38. For the variant G10U C53A C56A G61U A90C, the “polymerase ribozyme fitness (log ratio)” value is -5.6.

As to U14C U116G G120A U129A, the “polymerase ribozyme fitness (log ratio)” value was -2.37.

Consider C53G U54C A121C, for which the “polymerase ribozyme fitness (log ratio)” value turned out to be 1.78. The figure for U33C G69U is -1.74; for G17A C20U it is -3.63; for G60U C123A it is 0.751.

Turning to U96A U133G, the “polymerase ribozyme fitness (log ratio)” value was -0.674. Then G36U C64U C123G, with 0.799. With U7G C40U A41C G71U G113A, the “polymerase ribozyme fitness (log ratio)” value is -2.26. The figure for C53A C99U is -4.03; for G39C C72U G93U A121U it is 0.127. In the case of C62A G110C, the “polymerase ribozyme fitness (log ratio)” value was -5.17.

As for U7C C49A G61U A83C U129C, the “polymerase ribozyme fitness (log ratio)” value was -0.315. Then C15G A84U, with -2.56; and U7A G48C C85U G120C, with -0.382; and G47C G61A U87A U92A, with -5.03.

With G10U C13U C70A, the “polymerase ribozyme fitness (log ratio)” value was -0.716. In the case of C11G G39A C49G C53U G69A A75U G120C, the “polymerase ribozyme fitness (log ratio)” value is -2.05.

As for G45C G51A U78A C123G, the “polymerase ribozyme fitness (log ratio)” value is -2.51. Then A66C C82A, with -1.46; and G63U C89A, with -2.53; and G45A C99U, with -4.32. Regarding G36A C56U, the “polymerase ribozyme fitness (log ratio)” value is -0.261.

For A2G C8U U87A C89U C123A, the “polymerase ribozyme fitness (log ratio)” value is 1.08. Then C4U U7C A43U C62G, with -4.93; and G77A C79U G120U C123A, with 0.335. The figure for G42A G45C G61A A105C C115U is -6.55; for U7G A41C C56U it is -0.335. The figure for C8A C31A is -5.54; for A41U C94U A111G G128U it is -4.31; for G47A C79U A100U A111U G120A U125G U131A U132C it is -6.42. As for C8A A43C C86G C123U U129G, the “polymerase ribozyme fitness (log ratio)” value was -2.96. Then G117A U131A, with -1.59; and C12G C94G, with -1.02. The figure for U32C U33A C104A U109G C114U A121U G122C is -5.8; for G63U G117U U129G it is -6.2; for A91G C115U it is -1.36.

In the case of U9A C72A A83U U129A, the “polymerase ribozyme fitness (log ratio)” value is -0.91. The figure for A5C A24G U87C is -3.15. Then C12U C79G C101U G120A, with 0.377.

Consider U7C C49U A50C G60U G127A, for which the “polymerase ribozyme fitness (log ratio)” value was -0.326. Consider C12U A18C C62U, for which the “polymerase ribozyme fitness (log ratio)” value is -2.39. In the case of G52U C56A A66U C102A, the “polymerase ribozyme fitness (log ratio)” value was -6.29.

On to C13A C28G C34A A84C G110C, for which the “polymerase ribozyme fitness (log ratio)” value is -1.53.

C3G U9G A43G G61A C114A U131A: the “polymerase ribozyme fitness (log ratio)” value was -3.

As to C15U G17C A121C, the “polymerase ribozyme fitness (log ratio)” value was -2.22. Turning to G71U U112A, the “polymerase ribozyme fitness (log ratio)” value worked out at 1.49.

Regarding C76G C101A, the “polymerase ribozyme fitness (log ratio)” value is -3.2.

Turning to C15U U130A, the “polymerase ribozyme fitness (log ratio)” value is -1.54.

Turning to C97U G120U C124A, the “polymerase ribozyme fitness (log ratio)” value worked out at 0.793. Then C13A A50U G71U, with -2.57; and U9A G35U C72U G77A C124G U126A, with -5.65; and G120U U125A, with 0.531.

Turning to U7G C13U A84U U96A A121C, the “polymerase ribozyme fitness (log ratio)” value was determined as 0.875. The figure for C49U G128U is -2.9; for A27C G42C G71A G120C U126A U130G it is -6.83; for G45U C101A C102U it is -5.42. In the case of G63A C70A A95C, the “polymerase ribozyme fitness (log ratio)” value was -3.3.

Take C4U C11A C13U A16C U30G C49A C64G C102G U112G C115A: the “polymerase ribozyme fitness (log ratio)” value is -7.83. As to U59C A118C, the “polymerase ribozyme fitness (log ratio)” value was -2.95. Take C12U G44U C72G G127A G128C: the “polymerase ribozyme fitness (log ratio)” value was -4.51. Consider G77U U106C C124A, for which the “polymerase ribozyme fitness (log ratio)” value is -3.43. The figure for C73G C94G is -1.94; for C70U A95U A111U G120U it is -6.23; for C11U C20G C72U it is -3. Consider C12U U33G U131A, for which the “polymerase ribozyme fitness (log ratio)” value is -4.55. Regarding A18U G128C, the “polymerase ribozyme fitness (log ratio)” value is -4.63. The figure for G23A G61U is -4.38; for G57A C76A A105C it is -4.35; for U112C G117A it is -0.498. The figure for U106C C123G U133G is -1.72.

Consider C11U C56A C123U, for which the “polymerase ribozyme fitness (log ratio)” value stood at 1.37. The figure for U21A U33G G42C A43U G63U G117A is -6.65; for A16U A41C G57A A84U it is -3.81. Then U9C U32C U59G A121C G122U, with 0.733; and A41U A46U G63U C115A G120U C123G, with -3.28. As for U55C G58A U92C, the “polymerase ribozyme fitness (log ratio)” value was -0.821. The figure for C20A G45A is -2.28. As for G77U C114G, the “polymerase ribozyme fitness (log ratio)” value is -2.88. As to C12G G39U G61U, the “polymerase ribozyme fitness (log ratio)” value was found to be 0.0718.

G57U C104A U106C U125A U131C: the “polymerase ribozyme fitness (log ratio)” value is -1.82.

In the case of A6C U133A, the “polymerase ribozyme fitness (log ratio)” value was -0.897. The figure for C13A G69U C73G is -5.01.

As to A2U A37U U54A G69U U78G A105G, the “polymerase ribozyme fitness (log ratio)” value is -3.36. The figure for G44U C49A A50C C72A is -1.95; for U54G A84C it is -0.587.

For A100G G120U, the “polymerase ribozyme fitness (log ratio)” value was -3.45. The figure for C4A C13U A26U G44U C49A C104U is -6.34; for G10U G71C G135U it is -3.12. The figure for C22U G117A is -4.58; for G61U U109A U125A it is -5.58; for G63U G120C U131A it is 0.507.

For the variant G60A G128A, the “polymerase ribozyme fitness (log ratio)” value was -2.27. Take A2U C104A C124U U130A: the “polymerase ribozyme fitness (log ratio)” value was -2.07. Take C70U G77A U81C: the “polymerase ribozyme fitness (log ratio)” value was -1.19.

Take A6G C34G C56A C70G G120U: the “polymerase ribozyme fitness (log ratio)” value is -6.8. On to A41U A50C, for which the “polymerase ribozyme fitness (log ratio)” value was -1.53.

U9G G42A C53G: the “polymerase ribozyme fitness (log ratio)” value is -2.45. Then G45U C85U, with -2.01; and G44U C62U G63C, with -2.59; and C22U U87A, with -3.71. Consider C28U C82A C114U, for which the “polymerase ribozyme fitness (log ratio)” value is -3.98.

With C13A G51A, the “polymerase ribozyme fitness (log ratio)” value is -4.85. The figure for G45C A46U is -2.34. As to G39U A66U A119G, the “polymerase ribozyme fitness (log ratio)” value was -0.493. Then C62U G128C, with -3.37.

As to U9C A41C U87C C114U, the “polymerase ribozyme fitness (log ratio)” value is -0.644. Consider U33C G60A, for which the “polymerase ribozyme fitness (log ratio)” value was -4.87. Consider C4A G36A C73A, for which the “polymerase ribozyme fitness (log ratio)” value was -3.19. The figure for C49A G71A G77C is -1.63; for C86U A100U it is -0.74.

In the case of G57C G71U G113C, the “polymerase ribozyme fitness (log ratio)” value was -3.12. Then C53A C82U C88G A118U, with -0.344. The figure for C62G U87C A111G is -3.32. With C20A G48A C49G G61A U87G A90C, the “polymerase ribozyme fitness (log ratio)” value was -5.02. Then C20A C76A U106A, with -4.96.

Consider A2G C28U G93C C124G U133G, for which the “polymerase ribozyme fitness (log ratio)” value is -2.71. The figure for C73U C85G is -2.85. C11G A41C: the “polymerase ribozyme fitness (log ratio)” value is -0.501. Take C53U C79G: the “polymerase ribozyme fitness (log ratio)” value is -1.2. The figure for A84U C94A C115A is -1.46; for G52A C72U U125A G128C it is -3.74. Turning to G117C G127A, the “polymerase ribozyme fitness (log ratio)” value was -6.44. Then A18U A27U C98A G110A, with -7.19; and C97A C102U, with -4.94. The figure for C20G C53A is -4.27.

Turning to C12A C70U, the “polymerase ribozyme fitness (log ratio)” value is -0.454.

In the case of G60C U87A C101U G117A U132A, the “polymerase ribozyme fitness (log ratio)” value was -1.89. Then A37C G60A C102A, with -3.1. In the case of C34A G42A G61A G117C U131C, the “polymerase ribozyme fitness (log ratio)” value is -7.25. On to C28U A111U, for which the “polymerase ribozyme fitness (log ratio)” value is -3.7. Then C31G C34G C97A C102A G113A, with -6.66; and G17U C102U, with -4.64.

On to C40G U78C, for which the “polymerase ribozyme fitness (log ratio)” value was -1.4. As to C8A C13U C31A G61U U96A C124G, the “polymerase ribozyme fitness (log ratio)” value is -5.55.

Consider C56U C86G A111U U129G, for which the “polymerase ribozyme fitness (log ratio)” value was -5.47. For the variant C8G G71A C73A C94U C104U, the “polymerase ribozyme fitness (log ratio)” value was -1.01.

In the case of U81A G110A, the “polymerase ribozyme fitness (log ratio)” value was -2.37. The figure for G17U A37C is -2.42; for C56A C88U G120U it is -0.86; for G36A U96G it is -1.67. As to G25A C40U G93C C101U C104G C115U A118G, the “polymerase ribozyme fitness (log ratio)” value is -6.52.

For the variant G71C U78A A118G, the “polymerase ribozyme fitness (log ratio)” value was -0.642.

Consider C49A C70U C80A U116C, for which the “polymerase ribozyme fitness (log ratio)” value was -7.47. With G45U C104A G110U A118C, the “polymerase ribozyme fitness (log ratio)” value was -5.08. As for G44U A50C C73U U92C, the “polymerase ribozyme fitness (log ratio)” value is -2.12. Take C56G C101A: the “polymerase ribozyme fitness (log ratio)” value is -1.08. Consider A27G, for which the “polymerase ribozyme fitness (log ratio)” value is -1.52. Then G44A G60A C89G C101A C104U, with -2.79; and G47U G48U C56A C73A A118G, with -3.88; and C34A U109C, with -6.24. Regarding G63C C80U G110A, the “polymerase ribozyme fitness (log ratio)” value is -2.48.

Consider U21A C88A G110A, for which the “polymerase ribozyme fitness (log ratio)” value was -4.92. On to C11U A27U G52C G61C, for which the “polymerase ribozyme fitness (log ratio)” value is -4.18. Then A66U U106C, with -1.81; and C4U C34G G57A U67C G69A C124U G127C, with -6.05; and C73U C102U U131C, with -1.19. The figure for A6U C86U C89G is -1.63.

In the case of C15U G25A, the “polymerase ribozyme fitness (log ratio)” value is -4.87.

For the variant C72A A83C U96A G110A, the “polymerase ribozyme fitness (log ratio)” value was -2.24. Then C4G U7G C13U G113A, with -1.14; and C8G U116C, with -0.0708. C15A U106C: the “polymerase ribozyme fitness (log ratio)” value is -2.44. The figure for G19U U21A C79G C114A is -0.277; for G71A C82U C101A it is -0.823.

The values above are taken from the RNAGym collection of RNA variant scans (doi:10.1073/pnas.2313332121).
